Assay results taken from US7223734B2, “Plasma protein-binding ligands” (The American National Red Cross, priority 2002, dated 2007).
Non-standard residues stand in square brackets, D forms with d. No end group written: not given here. 2Nal = N[C@@H](Cc1ccc2ccccc2c1)C(=O)O

Key:
vWF/fVIII [1] = biological target: T1, vWF/fVIII (Homo sapiens, UniProt P04275); assay: Primary screening of 6-mer library for vWF/fVIII ligands; format: binding; parameters: from tissue; host or cells: human plasma (first round also purified vWF of unstated origin); settings: bead screening, immunodetection
Procedure: The ToyoPearl 650-M amino resin displaying the library of D- or L-hexamers ([…]) was incubated either with plasma or purified vWF in TBS buffer or EQ buffer. The captured proteins were subsequently eluted stepwise from the resin beads with sodium chloride (0.5 M, 1.0 M, 2.0 M) and guanidine (2–6 M). The target proteins were detected immunologically after transfer onto a PVDF membrane. One of three detection strategies was employed to detect target protein binding. A one-step immunodetection assay using a specific HRP-conjugated polyclonal sheep anti-human vWF antibody was performed. A differential-subtractive immuno-detection assay entailed detecting proteins transferred onto membranes with specific HRP-conjugated polyclonal sheep anti-human vWF antibody in 1:10,000 dilution (AHP062P; Serotec) followed by exposure to chemiluminescence substrate ECLPlus. Membranes were stripped and re-probed with rabbit anti-human albumin antibody (No. A0433, Lot No. 031K4897 from Sigma) followed by secondary alkaline phosphatase-labeled goat anti rabbit antibody (Tropix). Following film development, films were aligned and dots that appeared on films for vWF and on albumin films were deemed background signal. Dots positive for vWF but not for albumin were considered positive. A detection assay using radio-labeled antibody also was performed. Freshly I125-radiolabeled monoclonal anti-human vWF antibody, 101.104 (VWFAE; Enzyme Research) in dilution 1:250 in hSA-Hepes-0.14 M NaCl-Tween buffer was used for detection. After washing, membranes were exposed to Kodak films for 48 hrs at −80° C. Positive beads were picked and prepared for re-probing.
All beads collected from several gels were pooled in the same tube, washed with water and incubated in 8 M Guanidine to remove remaining proteins before re-probing. After extensive washing with water and citrate buffer, the resin beads were blocked with 3% human albumin for 2 hours and incubated with human plasma. Resin beads were immobilized in agarose gels (6 cm×7 cm) and target protein was transferred to a PVDF membrane in 2 M NaCl for 20 hours. Membranes were blocked, incubated with 101.104 anti-vWF antibody, and detected with secondary goat/anti-mouse-HRP. In some experiments, sheep anti-human vWF antibody conjugated with HRP was used for detection. Positive beads were picked, washed, and the attached ligands were sequenced.
For some re-probing experiments, resin beads linked to target proteins were visualized by adding specific antibody and color substrate to facilitate further alignment. Detection of a target protein bound to the resin beads by non-labeled monoclonal antibody 101.104 anti-vWF was used followed by goat/anti-mouse antibody conjugated with alkaline phophatase and FastRed prior to immobilizing beads in the agarose gel. Additional substrate CDPStar was applied directly onto a gel with immobilized beads, and the gel was exposed to a Kodak film. Dark spots on the film were correlated with red spots on the gel to ensure appropriate alignment. The proteins from resin beads immobilized in the gel were transferred onto a membrane and developed again with radiolabeled monoclonal antibody against vWF. The films and gel were aligned, and resin beads that appeared positive in all stages were picked, washed, and attached ligands sequenced.

paraoxonase = settings: resin bead suspension
Procedure: Paraoxonase binding to a WWLHAN (SEQ ID NO: 56)-displaying resin was evaluated according to the following protocol. Rabbit serum diluted 1/10 times with PBS ([…]) was incubated in a rotating Eppendorf tube with 50 μl of D-WWLHAN (SEQ ID NO: 56)-displaying resin suspension containing approximately […] of resin. The resin was previously soaked in 20% methanol overnight and washed 3 times with PBS to remove the methanol traces and resuspended in paraoxonase assay buffer (20 mM Tris pH 8.0, 150 mM NaCl, and 2 mM CaCl2). After 1 hour incubation at 37° C., resin beads were precipitated by centrifugation at 8000 g for 1 min in an Eppendorf microcentrifuge. Supernatants were transferred into separate Eppendorf tubes and resin bead pellets were resuspended in equal volumes of paraoxonase assay buffer. Paraoxonase activity of resin bead suspensions and supernatant solutions was measured. In particular, 100 μl of paraoxonase assay buffer containing 100 μm of DEPFMU (a fluorogenic substrate for paraoxonase detection) was mixed with […] of supernatant or 10 μl of resin bead suspension, or the original serum solution in a standard microtiter plate well. After thorough mixing, the plate solution was incubated for 20 minutes at 37° C. Hydrolysis of DEPFMU was quantified by measuring the fluorescence level at […] using a commercial fluorometer. The level of fluorescence correlates with the level of 6,8-difluoro-4-methylumbelliferyl released from DEPFMU as a result of paraoxonase-mediated hydrolysis. The actual amount of 6,8-difluoro-4-methylumbelliferyl released in the assay can be calibrated with a known amount of 6,8-difluoro-4-methylumbelliferyl.
Several different D-WWLHIN (SEQ ID NO: 33) analogs were screened for the ability to bind to paraoxonase under the conditions described in Example 7. For this experiment, the following resins were tested: WWLHAN (SEQ ID NO: 56), AWLHIN (SEQ ID NO: 59), WALHIN (SEQ ID NO: 60), WWAHIN (SEQ ID NO: 61), WWLHIA (SEQ ID NO: 63), WYLHIN (SEQ ID NO: 35), WWLFIN (SEQ ID NO: 36), and na1′WLHIN (SEQ ID NO: 40).

API = biological target: T2, API (Homo sapiens, UniProt P01009); assay: Primary screening of 6-mer library for API-binding ligands; settings: bead screening, immunodetection / radiolabel
T2 construct: from tissue; host or cells: human plasma (whole, fibrinogen-depleted or F1-Apo-depleted)
Procedure: Peptide libraries attached to Toyopearl-AF Amino 650M resin or Tentagel resin were evaluated with 14C-labeled fibrinogen and API. All steps were performed at room temperature. Specifically, 20 mg of Toyopearl resin beads or 40 mg of Tentagel resin beads were suspended in 20% methanol for a minimum of 2 hours in 15 ml conical polypropylene tubes (Corning). After rinsing with distilled water, the resin beads were equilibrated in 0.15 M NaCl, 0.020 M sodium citrate, pH 7.3. The resin beads were then blocked for 2 hours with 1% casein (Sigma) in 0.15M NaCl, 0.020M sodium citrate, pH 7.3. Following blocking, the resin beads were centrifuged and the supernatant removed. A solution containing 1 mM of C^14-labeled fibrinogen or 30 μM of C^14-labeled API was applied to the resin beads in the blocking solution in the presence of 0.1% Tween-20 (Sigma). The materials were incubated for 2 hours. The resin beads were washed with 0.15 M NaCl, 0.020 M sodium citrate, 0.05% Tween-20, pH 7.3, in a batch method (fibrinogen ligands) or in disposable BioRad 10 ml columns (API ligands) until radiation counts reached the background level of less than 40 DPM. The resin beads were divided into separate tubes to obtain approximately 5–10 mg of resin beads per sheet. This was accomplished by mixing each aliquot of resin beads with 20–22 ml of 1% low melting agarose solution (Sigma) at less than 40° C., and rapidly pouring the mixture onto GelBond® film sheets (BMA Cat. No. 53749, 16×18 cm; Cat. No. 53759, 12.5×24.5 cm). Spreading of the resin beads to the edge of the gel sheets was prevented by creating frames (about 23 cm×about 10 cm or about 15 cm×about 15 cm) with several layers of masking tape. About 20–22 ml of resin bead-agarose mixture was plated on each GelBond sheet. Special care was taken to spread the beads in an even monolayer to facilitate identification and isolation of individual “hot” beads. The agarose gel was then air-dried overnight and placed, bead side down, on X-ray film (Kodak Biomax MR). The agarose and autoradiography film were exposed for 4–14 days followed by a second exposure of 7 days in an about 20 cm×about 25 cm stainless steel cassette. Afterwards, the films were taped together and marked with several staple holes to ensure proper alignment of beads in agarose to film. After the films were developed, the positive beads that appeared on both films were identified under the microscope and picked by aligning the developed film(s) and agarose gel via the staple holes. Beads to be sequenced were carefully picked by cutting a square trench around the bead with a scalpel, and hydrating this area with distilled water. […]

vWF/fVIII [2] = biological target: T1, vWF/fVIII; assay: Removal of vWF/fVIII from plasma on D-EADna2′ED resin, fVIII coagulation assay (Example 11); format: binding; parameters: from tissue; host or cells: pooled human plasma
Procedure: (§1) Pooled human plasma (20 ml) was added to 0.8 ml of resin and incubated for 30 minutes while gently rotating. Resin was settled under gravity or by short gentle centrifugation, and the supernatant was collected (the equivalent of “flow-through” of the previous examples). The resin was then packed into an Omni column and the chromatography was completed using the ÄKTAExplorer system. The flow rate was kept constant at 0.4 ml/min (LV=31 cm/h; retention time=2 minutes). After washing of the resin with EQ buffer to baseline, the bound proteins were eluted from the resin with 10 column volumes (CV) of 0.5 M NaCl, followed by 10 CVs of 0.75 M NaCl, 1.0 M NaCl/1% Tween (all in 0.02 M sodium citrate, pH 7.0) and 2.0 M guanidine. Twenty-five microliters of 0.4 M calcium chloride was added to each fraction collected, and the fractions were evaluated by OD reading and Western Blots for vWF and fVIII antigen. The fVIII activity of pooled fractions was determined by chromogenic and coagulation assays.

vWF/fVIII [3] = biological target: T1, vWF/fVIII; assay: Removal of vWF/fVIII from plasma on D-EADna2′ED resin, fVIII chromogenic assay (Example 11); format: binding; parameters: from tissue; host or cells: pooled human plasma; settings: for FVIII / Total FVIII: Chromogenic Assay
Procedure: as §1

T2 sequence (P01009 25-418): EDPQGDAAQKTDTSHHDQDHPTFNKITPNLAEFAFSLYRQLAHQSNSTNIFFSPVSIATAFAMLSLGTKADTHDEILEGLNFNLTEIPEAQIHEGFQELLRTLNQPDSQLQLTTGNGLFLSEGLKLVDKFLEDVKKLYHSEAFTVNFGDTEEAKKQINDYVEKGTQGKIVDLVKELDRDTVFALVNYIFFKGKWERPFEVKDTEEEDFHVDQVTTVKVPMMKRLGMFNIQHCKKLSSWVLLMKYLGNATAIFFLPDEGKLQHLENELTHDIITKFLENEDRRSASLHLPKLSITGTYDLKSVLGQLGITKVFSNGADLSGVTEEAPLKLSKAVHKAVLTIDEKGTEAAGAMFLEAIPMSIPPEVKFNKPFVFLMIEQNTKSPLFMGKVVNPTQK

EDSWDV
identified as vWF/fVIII binding peptide from the 6-mer library (vWF/fVIII [1]): vWF/fVIII binding

WWLFIN [D-WWLFIN]
paraoxonase activity of bead fractions (paraoxonase): Significant activity

YVDEDD
identified as vWF/fVIII binding peptide from the 6-mer library (vWF/fVIII [1]): vWF/fVIII binding

LEDna2′EE (LED[2Nal]EE)
identified as vWF/fVIII binding peptide from the 6-mer library (vWF/fVIII [1]): vWF/fVIII binding

QWFPEK
identified as vWF/fVIII binding peptide from the 6-mer library (vWF/fVIII [1]): vWF/fVIII binding

YHLGWL
identified as vWF/fVIII binding peptide from the 6-mer library (vWF/fVIII [1]): vWF/fVIII binding

WALHIN [D-WALHIN]
paraoxonase activity of bead fractions (paraoxonase): Significant activity

HFDLHR
identified as API-binding peptide ligand from the 6-mer library (API): API-binding

WWAHIN [D-WWAHIN]
paraoxonase activity of bead fractions (paraoxonase): Significant activity

YLHYQT
identified as vWF/fVIII binding peptide from the 6-mer library (vWF/fVIII [1]): vWF/fVIII binding

EADna2′ED (EAD[2Nal]ED; not fully specified; also: D-amino acids, positions not given here) [D-EADna2′ED]
identified as vWF/fVIII binding peptide from the 6-mer library (vWF/fVIII [1]): vWF/fVIII binding | FVIII (vWF/fVIII [2]; Elution 1 (0.75 M NaCl)): 0.39 IU/ml | Total FVIII (vWF/fVIII [2]; Elution 1 (0.75 M NaCl)): 3.9 IU | FVIII (vWF/fVIII [2]; Elution 2 (1.0 M NaCl)): 0 IU/ml | Total FVIII (vWF/fVIII [2]; Elution 2 (1.0 M NaCl)): 0 IU | Total FVIII (vWF/fVIII [2]; Flow-Through, load 8.46 IU): 1.6 IU | FVIII (vWF/fVIII [2]; Flow-Through, plasma load 0.423 IU/ml): 0.08 IU/ml | FVIII (vWF/fVIII [2]; Wash (0.5 M NaCl)): 0 IU/ml | Total FVIII (vWF/fVIII [2]; Wash (0.5 M NaCl)): 0 IU | FVIII (vWF/fVIII [3]; Elution 1 (0.75 M NaCl)): 0.46 IU/ml | Total FVIII (vWF/fVIII [3]; Elution 1 (0.75 M NaCl)): 4.6 IU | FVIII (vWF/fVIII [3]; Elution 2 (1.0 M NaCl)): 0 IU/ml | Total FVIII (vWF/fVIII [3]; Elution 2 (1.0 M NaCl)): 0 IU | Total FVIII (vWF/fVIII [3]; Flow-Through, load 21.4 IU): 1.6 IU | FVIII (vWF/fVIII [3]; Flow-Through, plasma load 20 ml, 1.07 IU/ml): 0.08 IU/ml | FVIII (vWF/fVIII [3]; Wash (0.5 M NaCl)): 0.12 IU/ml | Total FVIII (vWF/fVIII [3]; Wash (0.5 M NaCl)): 1.2 IU | binding of vWF/fVIII by the resin (vWF/fVIII [3]; plasma, fVIII activity and Western Blot for vWF): binds vWF/fVIII
